In FireProtDB (doi:10.1021/bi00548a004):

B1: Tryptophan synthase alpha chain, P0A877 (parent)
chain: MERYESLFAQLKERKEGAFVPFVTLGDPGIEQSLKIIDTLIEAGADALELGIPFSDPLADGPTIQNATLRAFAAGVTPAQCFEMLALIRQKHPTIPIGLLMYANLVFNKGIDEFYAQCEKVGVDSVLVADVPVEESAPFRQAALRHNVAPIFICPPNADDDLLRQIASYGRGYTYLLSRAGVTGAENRAALPLNHLVAKLKEYNAAPPLQGFGISAPDQVKAAIDAGAAGAISGSAIVKIIEQHINEPEKMLAALKVFVQPMKAATRS

Variants of: B1
Conditions: Escherichia coli (strain K12), pH 7.8, Thermal, DSC, Sodium phosphate 1 mM, reversible: yes, structure 1WQ5, whole UniProt chain shown

| Variant | ddG of mutation (higher = less stable) (57.8 °C, EDTA 0.2 mM) | heat capacity change of unfolding (57.8 °C, EDTA 0.2 mM) | Tm | change of melting temperature, mutant - wild type (higher = more stable) | heat capacity change of unfolding | unfolding enthalpy (calorimetric) | unfolding enthalpy (van 't Hoff) |
| --- | --- | --- | --- | --- | --- | --- | --- |
| G211R | -0.1 kcal/mol | 2.8 kcal/mol/K | 58 °C | 0.2 °C | 2.8 kcal/mol/K | 111 kcal/mol | 113 kcal/mol |
| G211E | -0.6 kcal/mol | 2.7 kcal/mol/K | 59.6 °C | 1.8 °C | 2.7 kcal/mol/K | 109 kcal/mol | 107 kcal/mol |
